{
  "source": "paper PMC8345336",
  "key": {"[1]": {"target": "soluble methane monooxygenase hydroxylase component (sMMOH), (αβγ)2, from Methylosinus trichosporium OB3b (Methylosinus trichosporium OB3b) (UniProt P27353)", "experiment": "NMR titration"}, "[2]": {"target": "soluble methane monooxygenase hydroxylase component (sMMOH), (αβγ)2, from Methylosinus trichosporium OB3b (Methylosinus trichosporium OB3b) (UniProt P27353)", "experiment": "NMR titration", "remark": "listed apart in the source"}, "[3]": {"target": "soluble methane monooxygenase hydroxylase component (sMMOH), (αβγ)2, from Methylosinus trichosporium OB3b (Methylosinus trichosporium OB3b) (UniProt P27353)", "experiment": "NMR titration", "remark": "listed apart in the source"}, "[4]": {"target": "MMOB (Methylococcus capsulatus) (UniProt P18797)", "conditions": "cited from earlier work"}, "[5]": {"target": "MMOR (Methylococcus capsulatus) (UniProt P22868)", "conditions": "cited from earlier work"}, "[6]": {"target": "MMOR (Methylosinus trichosporium) (UniProt Q53563)", "conditions": "cited from earlier work"}, "[7]": {"target": "MMOB (Methylosinus trichosporium) (UniProt P27356)", "experiment": "fluorescence quenching", "conditions": "cited from earlier work"}},
  "note": "Read-outs that look alike come from different tables or passages of the source.",
  "data": [
    {"substance": "methane monooxygenase reductase component (MMOR), unlabelled (from UniProt Q53563 1-340) (enzyme)", "values": [
      {"measurement": "half dissociation value", "setting": "[1]", "result": 13.7, "unit": "µM"},
      {"measurement": "Kd", "setting": "[2]", "result": 60, "unit": "nM"},
      {"measurement": "half dissociation value", "setting": "[2]", "result": 9.1, "unit": "µM"},
      {"measurement": "Kd", "setting": "[3]", "result": 90, "unit": "nM"}
    ]},
    {"substance": "sMMOH (diferric) (from UniProt P22869)", "values": [
      {"measurement": "Kd", "setting": "[4]", "result": 550, "unit": "nM"},
      {"measurement": "Kd", "setting": "[5]", "result": 900, "unit": "nM"}
    ]},
    {"substance": "sMMOH (diferric) (from UniProt P27353)", "values": [
      {"measurement": "Kd", "setting": "[6]", "result": 10, "unit": "nM"},
      {"measurement": "Kd", "setting": "[7]", "result": 68, "unit": "nM"}
    ]}
  ]
}
